Data reported in the supplement of paper PMC12667976.
± gives the standard error.

B1: library; numbered along this chain (parent)
chain: MATDAALRRLLRLHRTEIAVAVDSAFPLLHALADHDVVPEDKFQETLHLKEKEGCPQAFHALLSWLLTQDSTAILDFWRVLFKDYNLERYGRLQPILDSFPKDVDLSQPRKGRKPPAVPKALVPPPRLPTKRKASEEARAAAPAALTPRGTASPGSQLKAKPPKKPESSAEQQRLPLGNGIQTMSASVQRAVAMSSGDVPGARGAVEGILIQQVFESGGSKKCIQVGGEFYTPSKFEDSGSGKNKARSSSGPKPLVRAKGAQGAAPGGGEARLGQQGSVPAPLALPSDPQLHQKNEDECAVCRDGGELICCDGCPRAFHLACLSPPLREIPSGTWRCSSCLQATVQEVQPRAEEPRPQEPPVETPLPPGLRSAGEEVRGPPGEPLAGMDTTLVYKHLPAPPSAAPLPGLDSSALHPLLCVGPEGQQNLAPGARCGVCGDGTDVLRCTHCAAAFHWRCHFPAGTSRPGTGLRCRSCSGDVTPAPVEGVLAPSPARLAPGPAKDDTASHEPALHRDDLESLLSEHTFDGILQWAIQSMARPAAPFPS

Variants of: B1
Test: AIRE transcriptional activation functional score (insulin promoter-GFP; nonsense median 0, synonymous median 1) (normalised score); higher = higher AIRE activity (more reporter activation)
Details: with insulin promoter-GFP reporter in HEK293
Procedure: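 Deep mutational scan of full-length human AIRE (codon-optimized cDNA, DT-POPCode NNN libraries over three regions) integrated at a Bxb1 landing pad in HEK293 cells carrying an insulin core promoter-GFP reporter at a Flp-In site. Cells were sorted for the top 10% GFP about 14 days after transfection. Variant frequency log-ratios (select vs non-select, TileSeq) were rescaled so that the nonsense median is 0 and the synonymous median is 1, then averaged over biological replicates.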

Row | Variant | AIRE transcriptional activation functional score
1 | A144D | 0.251 ± 0.65
2 | G219H | 0.761 ± 0.11
3 | P407R | 0.823 ± 0.31
4 | A343R | 0.816 ± 0.16
5 | E51R | 0.215 ± 0.32
6 | E51M | -1.54 ± 0.85
7 | E51W | -0.495 ± 0.11
8 | H512G | 0.716 ± 0.23
9 | H512K | 0.572 ± 0.14
10 | G91K | -0.415 ± 1.5
11 | P398R | 0.958 ± 0.22
12 | K83D | -0.0712 ± 0.38
13 | K83Q | 0.546 ± 1
14 | T334K | 0.794 ± 0.15
15 | V123Q | 1.31 ± 0.14
16 | A281E | -0.175 ± 0.053
17 | D34V | 0.0819 ± 0.32
18 | P95N | 1.56 ± 0.42
19 | P116S | 1.12 ± 0.27
20 | P116T | 0.481 ± 0.99
21 | S168H | 1.23 ± 0.37

Row | Variant | AIRE transcriptional activation functional score
22 | S168C | 1 ± 0.57
23 | A193I | 0.281 ± 0.29
24 | A193Q | 1.88 ± 0.16
25 | P56W | 0.16 ± 0.16
26 | T391Y | 1.45 ± 0.44
27 | A413W | 1.15 ± 0.072
28 | C223L | 0.844 ± 0.29
29 | C223R | 0.797 ± 0.39
30 | P101D | 0.335 ± 0.054
31 | S506N | 0.728 ± 0.11
32 | Y85H | -0.286 ± 0.36
33 | Y85K | -1.13 ± 0.22
34 | P350Q | 0.912 ± 0.13
35 | E207W | -0.268 ± 0.039
36 | E207M | -0.394 ± 0.12
37 | R328K | 0.67 ± 0.29
38 | L385P | 0.451 ± 0.065
39 | F100S | 0.172 ± 0.45
40 | C434K | -0.158 ± 0.1
41 | C434P | 0.202 ± 0.26
42 | C434G | 0.163 ± 0.16

Row | Variant | AIRE transcriptional activation functional score
43 | P109K | 0.0515 ± 0.12
44 | E363K | 1.09 ± 0.079
45 | I181R | 0.684 ± 0.36
46 | S195K | 0.873 ± 0.23
47 | S339M | 0.1 ± 0.043
48 | S339A | 1.13 ± 0.22
49 | G277Q | 0.825 ± 0.064
50 | G208T | 0.433 ± 0.44
51 | G208D | 0.296 ± 0.12
52 | G208S | 0.651 ± 0.2
53 | L97V | 0.394 ± 0.37
54 | V104Y | 0.986 ± 0.42
55 | P430L | 1.18 ± 0.24
56 | P430C | 0.92 ± 0.36
57 | P286D | 0.448 ± 0.17
58 | P286L | 1.14 ± 0.32
59 | G269R | 1.13 ± 0.27
60 | P166L | 0.95 ± 0.49
61 | W78T | 0.642 ± 0.21
62 | A58D | 0.158 ± 0.1
63 | G178Y | 1.89 ± 0.3

Row | Variant | AIRE transcriptional activation functional score
64 | G178W | 0.64 ± 0.071
65 | Q534Y | 0.193 ± 0.035
66 | A202R | 1.08 ± 0.33
67 | S518V | 1.12 ± 0.085
68 | A373F | 0.264 ± 0.082
69 | L366W | 1.29 ± 0.11
70 | I18M | 0.409 ± 0.13
71 | I18E | 0.682 ± 0.3
72 | R465L | 1.01 ± 0.4
73 | R465H | 0.546 ± 0.17
74 | E307I | 0.714 ± 0.45
75 | E307R | 1.28 ± 0.21
76 | D312H | 1 ± 0.13
77 | D312T | 0.953 ± 0.33
78 | E376W | 1.23 ± 0.12
79 | L67K | 0.25 ± 0.13
80 | A432G | 1.22 ± 0.11
81 | A284D | 1.06 ± 0.14
82 | R316Q | 1.05 ± 0.34
83 | Q530W | -0.0706 ± 0.066
